# Results: patent US20260152568A1 (NECTIN THERAPEUTICS, published 2026)
# T1: human PVR (SPR of the humanized variants, Example 5) (human, UniProt P15151 21-343)
# T1 sequence: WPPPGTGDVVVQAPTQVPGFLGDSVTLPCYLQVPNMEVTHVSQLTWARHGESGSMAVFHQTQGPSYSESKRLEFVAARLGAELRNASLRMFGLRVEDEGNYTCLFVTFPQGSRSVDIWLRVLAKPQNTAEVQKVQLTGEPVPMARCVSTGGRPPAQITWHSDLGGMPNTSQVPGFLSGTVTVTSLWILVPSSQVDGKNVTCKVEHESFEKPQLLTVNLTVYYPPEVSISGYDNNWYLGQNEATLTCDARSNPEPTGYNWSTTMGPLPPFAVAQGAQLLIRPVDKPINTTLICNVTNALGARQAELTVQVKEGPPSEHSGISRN
# Legend:
# [1] = target: T1, human PVR (SPR of the humanized …); assay: SPR
# [2] = target: T1, human PVR (SPR of the humanized …); assay: SPR; relative to N56E VH0/Vκ0
# [3] = target: human poliovirus receptor (PVR, CD155) expressed on cells (human) (UniProt P15151); assay: flow cytometry, binding to PVR-expressing HEK 293 cells
# [4] = target: human poliovirus receptor (PVR, CD155) expressed on cells (human) (UniProt P15151); assay: flow cytometry, binding to PVR-expressing HEK 293 cells; relative to N56E VH0/Vκ0
binder,measurement,setting,value
"humanized 5B9 variant VH3/VK2 (antibody, V domains shown) VH: QVQLVQSGAEVKKPGASVKVSCKATGYTFSNYWIEWIKQAPGQGLEWIGEIFPGSGRINFNEKFKGRVTFTADTSISTTYMELSRLRSDDTAVYYCARTKIYGNSFDYWGQGTLVTVSS VL: DIQMTQSPSSLSASVGDRVTITCKASQDVGTAVVWYQQKPGKAPKLLIYWASSRHEGVPDRFSGSGSGTDFTLTISSLQPEDFADYFCQQYSRYPLTFGQGTKLEIK",Kd,[1],4.32 nM
same,Relative KD,[2],0.78
same,EC50,[3],0.52 nM
same,Relative EC50,[4],0.66
"IgG4(S241P)_N56E_VH2/Vκ4 (antibody, V domains shown, humanized 5B9 variant with Vk4; also called VH2/Vk4) VH: QVQLVQSGAEVKKPGASVKISCKATGYTFSNYWIEWIKQAPGQGLEWIGEIFPGSGRINFNEKFKGRATFTADTSIDTTYMELSRLRSDDTAVYYCARTKIYGNSFDYWGQGTLVTVSS VL: DIQMTQSPSSLSASVGDRVTITCRASQDVGTAVAWYQQKPGKAPKSLIYWASSRHEGVPSRFSGSGSGTDFTLTISSLQPEDFATYFCQQYSRYPLTFGQGTKLEIK",Kd,[1],78.3 nM
same,Relative KD,[2],14.1
"IgG4(S241P)_N56E_VH3/Vκ4 (antibody, V domains shown, humanized 5B9 variant with Vk4, as IgG4; also called VH3/Vk4) VH: QVQLVQSGAEVKKPGASVKVSCKATGYTFSNYWIEWIKQAPGQGLEWIGEIFPGSGRINFNEKFKGRVTFTADTSISTTYMELSRLRSDDTAVYYCARTKIYGNSFDYWGQGTLVTVSS VL: DIQMTQSPSSLSASVGDRVTITCRASQDVGTAVAWYQQKPGKAPKSLIYWASSRHEGVPSRFSGSGSGTDFTLTISSLQPEDFATYFCQQYSRYPLTFGQGTKLEIK",Kd,[1],75.2 nM
same,Relative KD,[2],13.6
"IgG4(S241P)_N56E_VH5/Vκ4 (antibody, V domains shown, humanized 5B9 variant with Vk4; also called VH5/Vk4) VH: QVQLVQSGAEVKKPGASVKVSCKATGYTFSNYWIEWVRQAPGQGLEWMGEIFPGSGRINFNEKFKGRVTFTADTSISTAYMELSRLRSDDTAVYYCARTKIYGNSFDYWGQGTLVTVSS VL: DIQMTQSPSSLSASVGDRVTITCRASQDVGTAVAWYQQKPGKAPKSLIYWASSRHEGVPSRFSGSGSGTDFTLTISSLQPEDFATYFCQQYSRYPLTFGQGTKLEIK",Kd,[1],76.8 nM
same,Relative KD,[2],13.9
"humanized 5B9 variant VH1/VK2 (antibody, V domains shown) VH: QVQLVQSGAELKKPGASVKISCKATGYTFSNYWIEWIKQAPGQGLEWIGEIFPGSGRINFNEKFKGRATFTADTSIDTTYMQLSSLTSDDSAVYYCARTKIYGNSFDYWGQGTTVTVSS VL: DIQMTQSPSSLSASVGDRVTITCKASQDVGTAVVWYQQKPGKAPKLLIYWASSRHEGVPDRFSGSGSGTDFTLTISSLQPEDFADYFCQQYSRYPLTFGQGTKLEIK",Kd,[1],4.01 nM
same,Relative KD,[2],0.72
"humanized 5B9 variant VH1/VK3 (antibody, V domains shown) VH: QVQLVQSGAELKKPGASVKISCKATGYTFSNYWIEWIKQAPGQGLEWIGEIFPGSGRINFNEKFKGRATFTADTSIDTTYMQLSSLTSDDSAVYYCARTKIYGNSFDYWGQGTTVTVSS VL: DIQMTQSPSSLSASVGDRVTITCRASQDVGTAVVWYQQKPGKAPKLLIYWASSRHEGVPSRFSGSGSGTDFTLTISSLQPEDFATYFCQQYSRYPLTFGQGTKLEIK",Kd,[1],4.98 nM
same,Relative KD,[2],0.9
"humanized 5B9 variant VH2/VK1 (antibody, V domains shown) VH: QVQLVQSGAEVKKPGASVKISCKATGYTFSNYWIEWIKQAPGQGLEWIGEIFPGSGRINFNEKFKGRATFTADTSIDTTYMELSRLRSDDTAVYYCARTKIYGNSFDYWGQGTLVTVSS VL: DIMMTQSPSFLSASVGDRVTITCKASQDVGTAVVWYQQKPGKAPKLLIYWASSRHEGVPDRFTGSGSGTDFTLTISSLQSEDFADYFCQQYSRYPLTFGQGTKLEIK",Kd,[1],3.96 nM
same,Relative KD,[2],0.71
"humanized 5B9 variant VH2/VK2 (antibody, V domains shown) VH: QVQLVQSGAEVKKPGASVKISCKATGYTFSNYWIEWIKQAPGQGLEWIGEIFPGSGRINFNEKFKGRATFTADTSIDTTYMELSRLRSDDTAVYYCARTKIYGNSFDYWGQGTLVTVSS VL: DIQMTQSPSSLSASVGDRVTITCKASQDVGTAVVWYQQKPGKAPKLLIYWASSRHEGVPDRFSGSGSGTDFTLTISSLQPEDFADYFCQQYSRYPLTFGQGTKLEIK",Kd,[1],4.67 nM
same,Relative KD,[2],0.84
same,EC50,[3],0.64 nM
same,Relative EC50,[4],0.81
"humanized 5B9 variant VH3/VK1 (antibody, V domains shown) VH: QVQLVQSGAEVKKPGASVKVSCKATGYTFSNYWIEWIKQAPGQGLEWIGEIFPGSGRINFNEKFKGRVTFTADTSISTTYMELSRLRSDDTAVYYCARTKIYGNSFDYWGQGTLVTVSS VL: DIMMTQSPSFLSASVGDRVTITCKASQDVGTAVVWYQQKPGKAPKLLIYWASSRHEGVPDRFTGSGSGTDFTLTISSLQSEDFADYFCQQYSRYPLTFGQGTKLEIK",Kd,[1],4.56 nM
same,Relative KD,[2],0.82
"humanized 5B9 variant VH4/VK1 (antibody, V domains shown) VH: QVQLVQSGAEVKKPGASVKVSCKATGYTFSNYWIEWVRQAPGQGLEWIGEIFPGSGRINFNEKFKGRVTFTADTSISTTYMELSRLRSDDTAVYYCARTKIYGNSFDYWGQGTLVTVSS VL: DIMMTQSPSFLSASVGDRVTITCKASQDVGTAVVWYQQKPGKAPKLLIYWASSRHEGVPDRFTGSGSGTDFTLTISSLQSEDFADYFCQQYSRYPLTFGQGTKLEIK",Kd,[1],4.62 nM
same,Relative KD,[2],0.83
"humanized 5B9 variant VH5/VK1 (antibody, V domains shown) VH: QVQLVQSGAEVKKPGASVKVSCKATGYTFSNYWIEWVRQAPGQGLEWMGEIFPGSGRINFNEKFKGRVTFTADTSISTAYMELSRLRSDDTAVYYCARTKIYGNSFDYWGQGTLVTVSS VL: DIMMTQSPSFLSASVGDRVTITCKASQDVGTAVVWYQQKPGKAPKLLIYWASSRHEGVPDRFTGSGSGTDFTLTISSLQSEDFADYFCQQYSRYPLTFGQGTKLEIK",Kd,[1],5.91 nM
same,Relative KD,[2],1.07
"IgG4(S241P)_N56E_VH0/Vκ1 (antibody, V domains shown, half-humanized control pairing; also called VH0/Vk1) VH: QVQLQQSGAELMKPGASVKISCKATGYTFSNYWIEWIKQRPGHGLEWIGEIFPGSGRINFNEKFKGKATFTADTSSDTTYMQLSSLTSADSAVYYCARTKIYGNSFDYWGQGTTLTVSP VL: DIMMTQSPSFLSASVGDRVTITCKASQDVGTAVVWYQQKPGKAPKLLIYWASSRHEGVPDRFTGSGSGTDFTLTISSLQSEDFADYFCQQYSRYPLTFGQGTKLEIK",Kd,[1],4.03 nM
same,Relative KD,[2],0.73
"IgG4(S241P)_N56E_VH1/Vκ0 (antibody, V domains shown, half-humanized control pairing; also called VH1/Vk0) VH: QVQLVQSGAELKKPGASVKISCKATGYTFSNYWIEWIKQAPGQGLEWIGEIFPGSGRINFNEKFKGRATFTADTSIDTTYMQLSSLTSDDSAVYYCARTKIYGNSFDYWGQGTTVTVSS VL: DIMMTQSHKFMSTSVGDRVNITCKASQDVGTAVVWYQQKPGQSPKLLIYWASSRHEGVPDRFTGSGSGTDFTLTISNVQSEDLSDYFCQQYSRYPLTFGAGTKLELK",Kd,[1],4.5 nM
same,Relative KD,[2],0.81
"humanized 5B9 variant VH1/VK1 (antibody, V domains shown) VH: QVQLVQSGAELKKPGASVKISCKATGYTFSNYWIEWIKQAPGQGLEWIGEIFPGSGRINFNEKFKGRATFTADTSIDTTYMQLSSLTSDDSAVYYCARTKIYGNSFDYWGQGTTVTVSS VL: DIMMTQSPSFLSASVGDRVTITCKASQDVGTAVVWYQQKPGKAPKLLIYWASSRHEGVPDRFTGSGSGTDFTLTISSLQSEDFADYFCQQYSRYPLTFGQGTKLEIK",Kd,[1],4.17 nM
same,Relative KD,[2],0.75
"IgG4(S241P)_N56E_VH1/Vκ4 (antibody, V domains shown, humanized 5B9 variant with Vk4; also called VH1/Vk4) VH: QVQLVQSGAELKKPGASVKISCKATGYTFSNYWIEWIKQAPGQGLEWIGEIFPGSGRINFNEKFKGRATFTADTSIDTTYMQLSSLTSDDSAVYYCARTKIYGNSFDYWGQGTTVTVSS VL: DIQMTQSPSSLSASVGDRVTITCRASQDVGTAVAWYQQKPGKAPKSLIYWASSRHEGVPSRFSGSGSGTDFTLTISSLQPEDFATYFCQQYSRYPLTFGQGTKLEIK",Kd,[1],69.3 nM
same,Relative KD,[2],12.5
